The EC50 is the concentration needed to bring the measured effect to its halfway point. Higher therefore signals a need for much substance.

Assay [1] addresses T1, human CD3 (human, UniProt P07766 23-207; P04234 22-171; P09693 23-182). The assay is described as follows: cell-based or functional assay.
Assay [2] has as its target T1, human CD3. The experiment in a line: FACS on Jurkat cells.
In a further assay the target is T2, cynomolgus CD3 (cynomolgus (Macaca fascicularis), UniProt Q95LI5 22-198; Q95LI8 22-171; Q95LI7 23-181).
T2 construct: whole, on cells; composition of the 'mix' not defined; also called cynoCD3
T2 sequence (Q95LI5 22-198, chain 1 of 3): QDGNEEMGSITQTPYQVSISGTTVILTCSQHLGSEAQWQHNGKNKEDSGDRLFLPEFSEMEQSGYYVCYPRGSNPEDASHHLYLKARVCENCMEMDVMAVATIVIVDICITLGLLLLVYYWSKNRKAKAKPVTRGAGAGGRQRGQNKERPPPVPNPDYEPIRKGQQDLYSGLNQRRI
T2 sequence (Q95LI8 22-171, chain 2 of 3): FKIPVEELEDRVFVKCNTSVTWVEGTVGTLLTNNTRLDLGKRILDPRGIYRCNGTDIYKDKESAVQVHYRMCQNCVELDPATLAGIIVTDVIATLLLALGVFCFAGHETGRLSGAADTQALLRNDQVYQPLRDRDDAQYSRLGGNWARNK
T2 sequence (Q95LI7 23-181, chain 3 of 3): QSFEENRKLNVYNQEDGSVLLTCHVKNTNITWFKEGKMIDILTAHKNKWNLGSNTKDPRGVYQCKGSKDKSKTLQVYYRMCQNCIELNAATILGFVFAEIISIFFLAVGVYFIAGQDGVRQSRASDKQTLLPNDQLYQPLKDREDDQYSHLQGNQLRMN
The experiment in a line: FACS on 293T-cynoCD3mix cells.

T1 sequence (P07766 23-207, chain 1 of 3): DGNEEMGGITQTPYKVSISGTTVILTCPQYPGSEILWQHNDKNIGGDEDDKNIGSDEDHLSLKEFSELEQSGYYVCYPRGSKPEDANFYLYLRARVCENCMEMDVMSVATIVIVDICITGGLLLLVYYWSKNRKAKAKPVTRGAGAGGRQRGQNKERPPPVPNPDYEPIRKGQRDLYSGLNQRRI
T1 sequence (P04234 22-171, chain 2 of 3): as the sequence (Q95LI8 22-171, chain 2 of 3) above, with V5I, K15N, V20I, T32S, N33D, N34I, A64T, N74S, L83V, R141H counted along it
T1 sequence (P09693 23-182, chain 3 of 3): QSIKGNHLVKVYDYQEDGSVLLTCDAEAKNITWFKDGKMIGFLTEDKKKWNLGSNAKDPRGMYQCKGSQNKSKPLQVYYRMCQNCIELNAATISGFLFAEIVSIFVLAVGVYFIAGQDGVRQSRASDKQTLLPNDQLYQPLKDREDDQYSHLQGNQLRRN

B1: hu40E9-L2H14 (antibody, V domains shown)
VH: EVQLVQSGAEVKKPGSSVKVSCKASGYTFSSYVIHWVRQAPGQGLEWMGYINPYNDVIKYNEKFKGRVTLTSDKSTSTAYMELSSLRSEDTAVYYCARESYYSYDGFAYWGQGTLVTVSS
VL: EIVLTQSPDFQSVTPKEKVTITCSASSSVSYMHWYQQKPDQSPKRLIYDTSKLASGVPSRFSGSGSGTDFTLTINSLEAEDAATYYCQQWSSNPPTFGGGTKVEIK
As for B1, in the assay with human CD3 [1], the “EC50_Fold change (Jurkat-NFAT-luciferase activation, normalized to ch40-C12-C10-E9)” value was determined as 3.86 fold and the “Top signal_Fold change (Jurkat-NFAT-luciferase activation, normalized to ch40-C12-C10-E9)” value was determined as 0.96 fold. Further, in the assay with human CD3 [2], the EC50 is 0.43 nM and the “Top FACS signal” value is 2020.

B2: hu40E9-L5H7 (antibody, V domains shown)
VH: EVQLVQSGAEVKKPGSSVKVSCKASGYTFSSYVIHWVRQAPGQGLEWMGYINPGNGVIKYNEKFKGRVTLTSDKSTSTAYMELSSLRSEDTAVYYCARDSYSSYDGFAYWGQGTLVTVSS
VL: EIVLTQSPDFQSVTPKEKVTITCSASSSVSYMHWYQQKPDQSPKRLIYDTSKLASGVPSRFSGSGSGTDFTLTINSLEAEDAATYYCQQWRSSPPTFGGGTKVEIK
As for B2, in the assay with human CD3 [1], the “EC50_Fold change (Jurkat-NFAT-luciferase activation, normalized to ch40-C12-C10-E9)” value stood at 3.41 fold and the “Top signal_Fold change (Jurkat-NFAT-luciferase activation, normalized to ch40-C12-C10-E9)” value amounted to 1.15 fold. In addition, in the assay with human CD3 [2], the EC50 came to 0.48 nM and the “Top FACS signal” value was 1850.

B3: hu40E9-L2H15 (antibody, V domains shown)
VH: EVQLVQSGAEVKKPGSSVKVSCKASGYTFSSYVIHWVRQAPGQGLEWMGYINPYNDVIKYNEKFKGRVTLTSDKSTSTAYMELSSLRSEDTAVYYCARGSYYSYDGFAYWGQGTLVTVSS
VL: EIVLTQSPDFQSVTPKEKVTITCSASSSVSYMHWYQQKPDQSPKRLIYDTSKLASGVPSRFSGSGSGTDFTLTINSLEAEDAATYYCQQWSSNPPTFGGGTKVEIK
As for B3, in the assay with human CD3 [1], the “EC50_Fold change (Jurkat-NFAT-luciferase activation, normalized to ch40-C12-C10-E9)” value was determined as 98.6 fold and the “Top signal_Fold change (Jurkat-NFAT-luciferase activation, normalized to ch40-C12-C10-E9)” value is 0.75 fold. Moreover, in the assay with human CD3 [2], the response was half-maximal at 51.7 nM (EC50) and the “Top FACS signal” value was 796.

B4: hu40E9-L4H7 (antibody, V domains shown)
VH: EVQLVQSGAEVKKPGSSVKVSCKASGYTFSSYVIHWVRQAPGQGLEWMGYINPGNGVIKYNEKFKGRVTLTSDKSTSTAYMELSSLRSEDTAVYYCARDSYSSYDGFAYWGQGTLVTVSS
VL: EIVLTQSPDFQSVTPKEKVTITCSASSSVSYMHWYQQKPDQSPKRLIYDTSKLASGVPSRFSGSGSGTDFTLTINSLEAEDAATYYCQQWRSRPPTFGGGTKVEIK
B4: in the assay with human CD3 [1], the “EC50_Fold change (Jurkat-NFAT-luciferase activation, normalized to ch40-C12-C10-E9)” value was found to be 1.95 fold and the “Top signal_Fold change (Jurkat-NFAT-luciferase activation, normalized to ch40-C12-C10-E9)” value is 1.12 fold. For the same molecule, in the assay with human CD3 [2], a half-maximal effect (EC50) was put at 1.52 nM and the “Top FACS signal” value worked out at 1900.

B5: hu40E9-L4H8 (antibody, V domains shown)
VH: EVQLVQSGAEVKKPGSSVKVSCKASGYTFSSYVIHWVRQAPGQGLEWMGYINPGNDVIKYNEKFKGRVTLTSDKSTSTAYMELSSLRSEDTAVYYCARESYSSYDGFAYWGQGTLVTVSS
VL: EIVLTQSPDFQSVTPKEKVTITCSASSSVSYMHWYQQKPDQSPKRLIYDTSKLASGVPSRFSGSGSGTDFTLTINSLEAEDAATYYCQQWRSRPPTFGGGTKVEIK
As for B5, in the assay with human CD3 [1], the “Top signal_Fold change (Jurkat-NFAT-luciferase activation, normalized to ch40-C12-C10-E9)” value worked out at 0.32 fold. Further, in the assay with human CD3 [2], a half-maximal effect (EC50) was put at 26.9 nM and the “Top FACS signal” value was 255.

B6: hu40E9-L5H3 (antibody, V domains shown)
VH: EVQLVQSGAEVKKPGSSVKVSCKASGYTFSSYVIHWVRQAPGQGLEWMGYINPYNDVIKYNEKFKGRVTLTSDKSTSTAYMELSSLRSEDTAVYYCARDSYYSYDGFAYWGQGTLVTVSS
VL: EIVLTQSPDFQSVTPKEKVTITCSASSSVSYMHWYQQKPDQSPKRLIYDTSKLASGVPSRFSGSGSGTDFTLTINSLEAEDAATYYCQQWRSSPPTFGGGTKVEIK
With B6, in the assay with human CD3 [1], the “EC50_Fold change (Jurkat-NFAT-luciferase activation, normalized to ch40-C12-C10-E9)” value amounted to 23.2 fold and the “Top signal_Fold change (Jurkat-NFAT-luciferase activation, normalized to ch40-C12-C10-E9)” value amounted to 1.47 fold. In the assay with human CD3 [2], the EC50 is 0.66 nM and the “Top FACS signal” value came out at 2490.

B7: hu40E9-L2H16 (antibody, V domains shown)
VH: EVQLVQSGAEVKKPGSSVKVSCKASGYTFSDYVIHWVRQAPGQGLEWMGYINPYNDVIKYNEKFKGRVTLTSDKSTSTAYMELSSLRSEDTAVYYCARDSYYSYDGFAYWGQGTLVTVSS
VL: EIVLTQSPDFQSVTPKEKVTITCSASSSVSYMHWYQQKPDQSPKRLIYDTSKLASGVPSRFSGSGSGTDFTLTINSLEAEDAATYYCQQWSSNPPTFGGGTKVEIK
For B7, in the assay with human CD3 [1], the “EC50_Fold change (Jurkat-NFAT-luciferase activation, normalized to ch40-C12-C10-E9)” value was determined as 6.18 fold and the “Top signal_Fold change (Jurkat-NFAT-luciferase activation, normalized to ch40-C12-C10-E9)” value turned out to be 1.35 fold. Besides, in the assay with human CD3 [2], the half-maximal effective concentration (EC50) turned out to be 1.27 nM and the “Top FACS signal” value was determined as 2010.

B8: hu40E9-L6H3 (antibody, V domains shown)
VH: EVQLVQSGAEVKKPGSSVKVSCKASGYTFSSYVIHWVRQAPGQGLEWMGYINPYNDVIKYNEKFKGRVTLTSDKSTSTAYMELSSLRSEDTAVYYCARDSYYSYDGFAYWGQGTLVTVSS
VL: EIVLTQSPDFQSVTPKEKVTITCSASSSVSYMHWYQQKPDQSPKRLIYDTSKLASGVPSRFSGSGSGTDFTLTINSLEAEDAATYYCQQWRSWPPTFGGGTKVEIK
On to B8, for which, in the assay with human CD3 [1], the “EC50_Fold change (Jurkat-NFAT-luciferase activation, normalized to ch40-C12-C10-E9)” value came out at 4.34 fold and the “Top signal_Fold change (Jurkat-NFAT-luciferase activation, normalized to ch40-C12-C10-E9)” value is 0.95 fold. For the same molecule, in the assay with human CD3 [2], it took 0.8 nM to reach a half-maximal effect (EC50) and the “Top FACS signal” value amounted to 1990.

B9: hu40E9-L5H8 (antibody, V domains shown)
VH: EVQLVQSGAEVKKPGSSVKVSCKASGYTFSSYVIHWVRQAPGQGLEWMGYINPGNDVIKYNEKFKGRVTLTSDKSTSTAYMELSSLRSEDTAVYYCARESYSSYDGFAYWGQGTLVTVSS
VL: EIVLTQSPDFQSVTPKEKVTITCSASSSVSYMHWYQQKPDQSPKRLIYDTSKLASGVPSRFSGSGSGTDFTLTINSLEAEDAATYYCQQWRSSPPTFGGGTKVEIK
Turning to B9, in the assay with human CD3 [1], the “Top signal_Fold change (Jurkat-NFAT-luciferase activation, normalized to ch40-C12-C10-E9)” value turned out to be 0.3 fold. In addition, in the assay with human CD3 [2], a half-maximal response (EC50) required 25.4 nM and the “Top FACS signal” value was found to be 531.

B10: hu40E9-L4H3 (antibody, V domains shown)
VH: EVQLVQSGAEVKKPGSSVKVSCKASGYTFSSYVIHWVRQAPGQGLEWMGYINPYNDVIKYNEKFKGRVTLTSDKSTSTAYMELSSLRSEDTAVYYCARDSYYSYDGFAYWGQGTLVTVSS
VL: EIVLTQSPDFQSVTPKEKVTITCSASSSVSYMHWYQQKPDQSPKRLIYDTSKLASGVPSRFSGSGSGTDFTLTINSLEAEDAATYYCQQWRSRPPTFGGGTKVEIK
As for B10, in the assay with human CD3 [1], the “EC50_Fold change (Jurkat-NFAT-luciferase activation, normalized to ch40-C12-C10-E9)” value is 1.82 fold and the “Top signal_Fold change (Jurkat-NFAT-luciferase activation, normalized to ch40-C12-C10-E9)” value stood at 1.08 fold. For the same molecule, in the assay with human CD3 [2], a half-maximal effect (EC50) was put at 1.59 nM and the “Top FACS signal” value amounted to 2490.

B11: hu147E2-L1H2 (antibody, V domains shown)
VH: EVQLVQSGAEVKKPGSSVKVSCKASGYTFTSYWMHWVRQAPGQGLEWMGNINPSNGATNYNEKFKSRVTITADKSTSTAYMELSSLRSEDTAVYYCARDRSSQYYFDYWGQGTTVTVSS
VL: DIVMTQSPDSLAVSLGERATINCKSSQSLLNSRSRKNYLAWYQQKPGQPPKLLIYWASTRESGVPDRFSGSGSGTDFTLTISSLQAEDVAVYYCTQSYTLRTFGGGTKVEIK
notes: humanized 147E11E2; also called hu14E2-L1H2
In the assay with cynomolgus CD3, B11 returned an EC50 of 2.01 nM and a Top signal of 19700.

B12: hu147E2-L1H3a (antibody, V domains shown)
VH: EVQLVQSGAEVKKPGSSVKVSCKASGYTFTSYWMHWVRQAPGQGLEWMGNINPSQGATNYNEKFKSRVTLTVDKSTSTAYMELSSLRSEDTAVYYCARDRSSQYYFDYWGQGTTVTVSS
VL: DIVMTQSPDSLAVSLGERATINCKSSQSLLNSRSRKNYLAWYQQKPGQPPKLLIYWASTRESGVPDRFSGSGSGTDFTLTISSLQAEDVAVYYCTQSYTLRTFGGGTKVEIK
notes: humanized 147E11E2 with N55Q in HCDR2 (deamidation site removed); also called hu14E2-L1H3a
In the assay with cynomolgus CD3, B12 yielded a concentration for a half-maximal effect (EC50) of 1.66 nM and a Top signal of 20700.
